The text below walks through data of PMC8920935.

The Kd is the concentration at which binding is half-saturated. Read a low Kd as tighter binding.

Test [1] has as its target Escherichia coli YidC R366E/F433S, cysteine-less, with a cysteine introduced at position 405 (Escherichia coli) (UniProt P25714). The test can be described thus: FRET or BRET; labelled Pf3 coat added in steps (60, 60, 150, 150, 150, 300, 300 nM; final 1.17 uM; 1 min each) to DOPC proteoliposomes with 300 nM labelled YidC; excitation 500 nm, acceptor signal at 669 nm; room temperature. On the technique in general: Bioluminescence resonance energy transfer reports proximity on the nanometre scale.

Test [2] concerns the target Escherichia coli YidC, cysteine-less, with a cysteine introduced at position 405 (WT in the FRET assay) (Escherichia coli) (UniProt P25714). The test is described as above.

Consider “Pf3 coat protein, fluorescently labelled at residue 48 (from UniProt P03623 1-44) (natural protein)”, for which the Kd worked out at 349 nM in test [1] and 241 nM in test [2].
